Measurements reported in patent publication US20190062420A1 (Janssen / Centocor, published 2019).

What was measured:
[1] = molecular target: T1, human FcγRIIA (NM_021642) expressed on cells (human, UniProt P12318 36-317); assay: cell-based or functional assay
T1 sequence: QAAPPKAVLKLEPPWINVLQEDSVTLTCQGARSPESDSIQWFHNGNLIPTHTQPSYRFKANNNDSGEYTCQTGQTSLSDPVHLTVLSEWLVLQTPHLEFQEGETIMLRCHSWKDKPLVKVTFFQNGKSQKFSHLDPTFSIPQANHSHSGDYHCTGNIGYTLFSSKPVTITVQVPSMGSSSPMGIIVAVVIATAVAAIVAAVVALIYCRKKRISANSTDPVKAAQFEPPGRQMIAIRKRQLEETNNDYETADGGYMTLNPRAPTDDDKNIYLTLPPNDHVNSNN

[2] = molecular target: T2, human FcγRIIIA (NM_000569) expressed on cells (human, UniProt P08637 17-254); assay: cell-based or functional assay
[3] = molecular target: T3, human FcγRIIB (NM_004001) expressed on cells (human, UniProt P31994 43-310); assay: cell-based or functional assay
T3 sequence: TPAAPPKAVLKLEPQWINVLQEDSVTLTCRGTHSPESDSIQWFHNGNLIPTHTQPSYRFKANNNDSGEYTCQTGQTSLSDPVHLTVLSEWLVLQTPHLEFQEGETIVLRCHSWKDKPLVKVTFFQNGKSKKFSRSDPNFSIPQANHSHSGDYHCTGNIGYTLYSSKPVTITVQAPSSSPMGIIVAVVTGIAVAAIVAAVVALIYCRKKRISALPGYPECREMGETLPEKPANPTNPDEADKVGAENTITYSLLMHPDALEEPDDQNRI

[4] = molecular target: T4, human FcγRI (NM_000566) expressed on cells (human, UniProt P12314 16-374); assay: flow cytometry; Expi293F cells transfected with FcγRI
T4 construct: Transiently expressed on Expi293F cells
Protocol: (§1) Plasmids expressing cDNAs encoding human FcγRI (NM_000566) (SEQ ID NO: 44), FcγRIIA (NM_021642) (SEQ ID NO: 2), FcγRIIB (NM_004001) (SEQ ID NO: 3), and FcγRIIIA (NM_000569) (SEQ ID NO: 45) (Origene) were transiently transfected into Expi293F cells by ExpiFectamine293 transfection kit (Life Technologies). Flow cytometry assays were performed 48 h after transfection.
(§2) 2×10⁵ cells per well were seeded in 96-well plate and blocked in BSA Stain Buffer (BD Biosciences, San Jose, USA) for 30 min at 4° C. Cells were incubated with test mAbtyrin on ice for 1.5 h at 4° C. After being washed twice with BSA stain buffer, the cells were incubated with R-PE labeled anti-human or anti-mouse IgG secondary antibody (Jackson Immunoresearch Laboratories) for 45 min at 4° C. The cells were washed twice in stain buffer and then resuspended in 150 μL of Stain Buffer containing 1:200 diluted DRAQ7 live/dead stain (Cell Signaling Technology, Danvers, USA). PE and DRAQ7 signals of the stained cells were detected by Miltenyi MACSQuant flow cytometer (Miltenyi Biotec, Auburn, USA) using B2 and B4 channel respectively. Live cells were gated on DRAQ7 exclusion and the geometric mean fluorescence signals were determined for at least 10,000 live events collected. FlowJo software (Tree Star) was used for analysis. Data was plotted as the logarithm of antibody concentration versus mean fluorescence signals. Nonlinear regression analysis was performed by GraphPad Prism 6 (GraphPad Software, Inc.) and EC₅₀ values were calculated.

FcγRIIA protein = molecular target: T5, FcγRIIA protein (human, UniProt P12318 36-217, biotinylated (SureLINK Biotin Kit) in the ELISA of Example 1); assay: cell-based or functional assay
T5 sequence: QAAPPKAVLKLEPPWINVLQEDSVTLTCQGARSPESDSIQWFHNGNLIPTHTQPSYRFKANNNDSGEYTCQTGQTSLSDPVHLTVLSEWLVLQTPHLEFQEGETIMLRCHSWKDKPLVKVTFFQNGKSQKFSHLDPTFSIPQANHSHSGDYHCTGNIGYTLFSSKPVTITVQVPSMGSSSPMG

FcγRIIB protein = molecular target: T6, FcγRIIB protein (human, UniProt P31994 43-217, biotinylated (SureLINK Biotin Kit) in the ELISA of Example 1); assay: cell-based or functional assay
T6 sequence: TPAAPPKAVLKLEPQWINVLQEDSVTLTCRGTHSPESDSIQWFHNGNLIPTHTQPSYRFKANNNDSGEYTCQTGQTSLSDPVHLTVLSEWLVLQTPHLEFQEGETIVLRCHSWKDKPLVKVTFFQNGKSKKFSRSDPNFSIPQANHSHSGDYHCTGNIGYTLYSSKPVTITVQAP

[5] = molecular target: T3, human FcγRIIB (NM_004001) expressed on …; assay: flow cytometry; Raji cells (express predominantly FcγRIIB)
Protocol: as §2
Raji cell is a cell line derived from B cells that express predominantly FcγRIIB. The binding of mAbtyrins on Raji cells were investigated by flow cytometry assay described for testing mAbtyrin binding to FcγR. Binding of the mAbtyrins were detected by flow cytometry using a PE-labeled Goat F(ab′) against Human IgG(γ).

[6] = molecular target: T7, human OX40 expressed on HEK-Blue: OX40 cells (human, UniProt P43489 29-277); assay: flow cytometry; HEK-Blue: OX40 cells
T7 construct: also called CD134
T7 sequence: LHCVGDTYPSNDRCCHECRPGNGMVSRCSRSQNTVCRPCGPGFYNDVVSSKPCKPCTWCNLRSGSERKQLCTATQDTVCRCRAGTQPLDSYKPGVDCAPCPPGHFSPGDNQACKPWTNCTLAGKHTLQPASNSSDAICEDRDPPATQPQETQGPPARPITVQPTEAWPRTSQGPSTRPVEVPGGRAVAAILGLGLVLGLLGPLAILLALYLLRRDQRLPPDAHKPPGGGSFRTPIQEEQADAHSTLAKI
How it was run: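 HEK-Blue Null 1 cells stably transfected with human OX40 were blocked, then incubated with mAbtyrin for 1.5 h at 4 °C. Binding was detected with a PE anti-human IgG F(ab′)₂ secondary, gating on DRAQ7-excluding live cells and taking geometric mean fluorescence. EC50 came from nonlinear regression versus log antibody concentration.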

[7] = molecular target: T2, human FcγRIIIA (NM_000569) expressed on …; assay: flow cytometry; Expi293F cells transfected with FcγRIIIA
Protocol: as §1, §2

[8] = molecular target: T3, human FcγRIIB (NM_004001) expressed on …; assay: flow cytometry; Expi293F cells transfected with FcγRIIB
Protocol: as §1, §2

[9] = molecular target: T1, human FcγRIIA (NM_021642) expressed on …; assay: flow cytometry; Expi293F cells transfected with FcγRIIA
Protocol: as §1, §2

T4 sequence (P12314 16-374 limits assumed): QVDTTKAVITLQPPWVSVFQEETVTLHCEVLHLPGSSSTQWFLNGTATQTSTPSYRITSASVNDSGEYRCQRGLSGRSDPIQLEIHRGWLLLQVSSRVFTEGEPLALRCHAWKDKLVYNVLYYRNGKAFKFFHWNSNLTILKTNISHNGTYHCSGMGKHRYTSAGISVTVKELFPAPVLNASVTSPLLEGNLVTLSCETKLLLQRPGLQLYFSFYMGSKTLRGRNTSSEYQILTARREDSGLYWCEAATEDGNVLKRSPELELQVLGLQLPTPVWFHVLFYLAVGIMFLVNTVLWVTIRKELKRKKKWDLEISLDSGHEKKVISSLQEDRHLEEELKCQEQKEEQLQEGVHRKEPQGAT
T2 sequence (P08637 17-254 limits assumed): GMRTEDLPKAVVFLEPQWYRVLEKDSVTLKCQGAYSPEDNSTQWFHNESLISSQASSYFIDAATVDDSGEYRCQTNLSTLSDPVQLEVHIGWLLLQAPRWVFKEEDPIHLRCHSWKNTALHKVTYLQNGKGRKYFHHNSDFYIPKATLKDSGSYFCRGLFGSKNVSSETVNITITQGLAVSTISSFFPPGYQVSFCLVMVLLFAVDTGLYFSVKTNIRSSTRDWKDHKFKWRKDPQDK

Binder | ADCP EC50 [1] | ADCC (fold activation) at 1 µg/ml [2] | % activity at 1 µg/ml with Raji cells (HEK-Blue: OX40 NF-κB reporter) [3] | EC50 [4] | IFNγ production by activated CD4 T cells, plate-coated FcγRIIA (FcγRIIA protein) | TNFα production by activated CD4 T cells, plate-coated FcγRIIA (FcγRIIA protein) | IFNγ production by activated CD4 T cells, plate-coated FcγRIIb (FcγRIIB protein) | TNFα production by activated CD4 T cells, plate-coated FcγRIIb (FcγRIIB protein) | EC50 [5] | EC50 [6] | EC50 [7] | EC50 [8] | EC50 [9]
OX40SF2IgG2sigma_R2BS29_HC-N (bispecific antibody, mAbtyrin: R2BS29 FN3 domain and linker at the N-terminus of the heavy chain of OX40SF2IgG2sigma; also called mAbtyrin) heavy: LPAPKNLVVSRVTEDSARLSWTAPDAAFDSFPIYYWEYRVGGEAIVLTVPGSERSYDLTGLKPGTEYFVYINGVKGGEESRPLSAIFTTGGGGSGGGGSGGGGSGGGGSQVQLVQSGAEVKKPGSSVKVSCKASGYTFKDYTMHWVRQAPGQGLEWIGGIYPNNGGSTYNQNFKDRVTLTADKSTSTAYMELSSLRSEDTAVYYCARMGYHGPHLDFDVWGQGTTVTVSSASTKGPSVFPLAPCSRSTSESTAALGCLVKDYFPEPVTVSWNSGALTSGVHTFPAVLQSSGLYSLSSVVTVPSSNFGTQTYTCNVDHKPSNTKVDKTVERKCCVECPPCPAPPAAASSVFLFPPKPKDTLMISRTPEVTCVVVDVSAEDPEVQFNWYVDGVEVHNAKTKPREEQFNSTFRVVSVLTVLHQDWLNGKEYKCKVSNKGLPSSIEKTISKTKGQPREPQVYTLPPSREEMTKNQVSLTCLVKGFYPSDIAVEWESNGQPENNYKTTPPMLDSDGSFFLYSKLTVDKSRWQQGNVFSCSVMHEALHNHYTQKSLSLSPGK light: DIQMTQSPSSLSASVGDRVTITCKASQDVGAAVAWYQQKPGKAPKLLIYWASTRHTGVPSRFSGSGSGTDFTLTISSLQPEDFATYYCQQYINYPLTFGGGTKVEIKRTVAAPSVFIFPPSDEQLKSGTASVVCLLNNFYPREAKVQWKVDNALQSGNSQESVTEQDSKDSTYSLSSTLTLSKADYEKHKVYACEVTHQGLSSPVTKSFNRGEC | 0.012 µg/mL | 1 fold | 7% | > 10 µg/mL | 89 pg/mL | 28 pg/mL | 76 pg/mL | 29 pg/mL | 1.2 µg/mL | 0.161 µg/mL | > 10 µg/mL | 1.01 µg/mL | 0.042 µg/mL
OX40SF2IgG2sigma_R2BS29_LC-C (bispecific antibody, mAbtyrin: linker and R2BS29 FN3 domain at the C-terminus of the light chain of OX40SF2IgG2sigma; also called mAbtyrin) heavy: QVQLVQSGAEVKKPGSSVKVSCKASGYTFKDYTMHWVRQAPGQGLEWIGGIYPNNGGSTYNQNFKDRVTLTADKSTSTAYMELSSLRSEDTAVYYCARMGYHGPHLDFDVWGQGTTVTVSSASTKGPSVFPLAPCSRSTSESTAALGCLVKDYFPEPVTVSWNSGALTSGVHTFPAVLQSSGLYSLSSVVTVPSSNFGTQTYTCNVDHKPSNTKVDKTVERKCCVECPPCPAPPAAASSVFLFPPKPKDTLMISRTPEVTCVVVDVSAEDPEVQFNWYVDGVEVHNAKTKPREEQFNSTFRVVSVLTVLHQDWLNGKEYKCKVSNKGLPSSIEKTISKTKGQPREPQVYTLPPSREEMTKNQVSLTCLVKGFYPSDIAVEWESNGQPENNYKTTPPMLDSDGSFFLYSKLTVDKSRWQQGNVFSCSVMHEALHNHYTQKSLSLSPGK light: DIQMTQSPSSLSASVGDRVTITCKASQDVGAAVAWYQQKPGKAPKLLIYWASTRHTGVPSRFSGSGSGTDFTLTISSLQPEDFATYYCQQYINYPLTFGGGTKVEIKRTVAAPSVFIFPPSDEQLKSGTASVVCLLNNFYPREAKVQWKVDNALQSGNSQESVTEQDSKDSTYSLSSTLTLSKADYEKHKVYACEVTHQGLSSPVTKSFNRGECGGGGSGGGGSGGGGSGGGGSMLPAPKNLVVSRVTEDSARLSWTAPDAAFDSFPIYYWEYRVGGEAIVLTVPGSERSYDLTGLKPGTEYFVYINGVKGGEESRPLSAIFTT | 0.0165 µg/mL | 1 fold | 76% | > 10 µg/mL | 153 pg/mL | 30 pg/mL | 89 pg/mL | 30 pg/mL | 3.44 µg/mL | 0.196 µg/mL | > 10 µg/mL | 0.941 µg/mL | 0.054 µg/mL
OX40SF2IgG2sigma_R2BS29_LC-N (bispecific antibody, mAbtyrin: R2BS29 FN3 domain and linker at the N-terminus of the light chain of OX40SF2IgG2sigma; also called mAbtyrin) heavy: QVQLVQSGAEVKKPGSSVKVSCKASGYTFKDYTMHWVRQAPGQGLEWIGGIYPNNGGSTYNQNFKDRVTLTADKSTSTAYMELSSLRSEDTAVYYCARMGYHGPHLDFDVWGQGTTVTVSSASTKGPSVFPLAPCSRSTSESTAALGCLVKDYFPEPVTVSWNSGALTSGVHTFPAVLQSSGLYSLSSVVTVPSSNFGTQTYTCNVDHKPSNTKVDKTVERKCCVECPPCPAPPAAASSVFLFPPKPKDTLMISRTPEVTCVVVDVSAEDPEVQFNWYVDGVEVHNAKTKPREEQFNSTFRVVSVLTVLHQDWLNGKEYKCKVSNKGLPSSIEKTISKTKGQPREPQVYTLPPSREEMTKNQVSLTCLVKGFYPSDIAVEWESNGQPENNYKTTPPMLDSDGSFFLYSKLTVDKSRWQQGNVFSCSVMHEALHNHYTQKSLSLSPGK light: LPAPKNLVVSRVTEDSARLSWTAPDAAFDSFPIYYWEYRVGGEAIVLTVPGSERSYDLTGLKPGTEYFVYINGVKGGEESRPLSAIFTTGGGGSGGGGSGGGGSGGGGSDIQMTQSPSSLSASVGDRVTITCKASQDVGAAVAWYQQKPGKAPKLLIYWASTRHTGVPSRFSGSGSGTDFTLTISSLQPEDFATYYCQQYINYPLTFGGGTKVEIKRTVAAPSVFIFPPSDEQLKSGTASVVCLLNNFYPREAKVQWKVDNALQSGNSQESVTEQDSKDSTYSLSSTLTLSKADYEKHKVYACEVTHQGLSSPVTKSFNRGEC | 0.0089 µg/mL | 1 fold | 11% | > 10 µg/mL | 103 pg/mL | 29 pg/mL | 72 pg/mL | 29 pg/mL | 3.37 µg/mL | 0.431 µg/mL | > 10 µg/mL | 1.02 µg/mL | 0.046 µg/mL
